Test results from patent US20040009175A1.

B1: (His)6TAO1(1-416) (protein)
chain: MRGSHHHHHHMPSTNRAGSLKDPEIAELFFKEDPEKLFTDLREIGHGSFGAVYFARDVRTNEVVAIKKMSYSGKQSTEKWQDIIKEVKFLQRIKHPNSIEYKGCYLREHTAWLVMEYCLGSASDLLEVHKKPLQEVEIAAITHGALQGLAYLHSHTMIHRDIKAGNILLTEPGQVKLADFGSASMASPANSFVGTPYWMAPEVILAMDEGQYDGKVDVWSLGITCIELAERKPPLFNMNAMSALYHIAQNESPTLQSNEWSDYFRNFVDSCLQKIPQDRPTSEELLKHMFVLRERPETVLIDLIQRTKDAVRELDNLQYRKMKKLLFQEAHNGPAVEAQEEEEEQDHGGGRTGTVNSVGSNQSIPSMSISASSQSSSVNSLPDASDDKSELDMMEGDHTVMSNSSVIHLKPEEENYQEEGDPRTRA
B2: full-length HA-tagged TAO1 (enzyme, not shown: small tags and cut ends)
chain: MPSTNRAGSLKDPEIAELFFKEDPEKLFTDLREIGHGSFGAVYFARDVRTNEVVAIKKMSYSGKQSTEKWQDIIKEVKFLQRIKHPNSIEYKGCYLREHTAWLVMEYCLGSASDLLEVHKKPLQEVEIAAITHGALQGLAYLHSHTMIHRDIKAGNILLTEPGQVKLADFGSASMASPANSFVGTPYWMAPEVILAMDEGQYDGKVDVWSLGITCIELAERKPPLFNMNAMSALYHIAQNESPTLQSNEWSDYFRNFVDSCLQKIPQDRPTSEELLKHMFVLRERPETVLIDLIQRTKDAVRELDNLQYRKMKKLLFQEAHNGPAVEAQEEEEEQDHGGGRTGTVNSVGSNQSIPSMSISASSQSSSVNSLPDASDDKSELDMMEGDHTVMSNSSVIHLKPEEENYQEEGDPRTRASAPQSPPQVSRHKSHYRNREHFATIRTASLVTRQMQEHEQDSELREQMSGYKRMRRQHQKQLMTLENKLKAEMDEHRLRLDKDLETQRNNFAAEMEKLIKKHQASMEKEAKVMANEEKKFQQHIQAQQKKELNSFLESQKREYKLRKEQLKEELNENQSTPKKEKQEWLSKQKENIQHFQAEEEANLLRRQRQYLELECRRFKRRMLLGRHNLEQDLVREELNKRQTQKDLEHAMLLRQHESMQELEFRHLNTIQKMRCELIRLQHQTELTNQLEYNKRRERELRRKHVMEVRQQPKSLKSKELQIKKQFQDTCKIQTRQYKALRNHLLETTPKSEHKAVLKRLKEEQTRKLAILAEQYDHSINEMLSTQALRLDEAQEAECQVLKMQLQQELELLNAYQSKIKMQAEAQHDRELRELEQRVSLRRALLEQKIEEEMLALQNERTERIRSLLERQAREIEAFDSESMRLGFSNMVLSNLSPEAFSHSYPGASSWSHNPTGGSGPHWGHPMGGTPQAWGHPMQGGPQPWGHPSGPMQGVPRGSSIGVRNSPQALRRTALGGRTEQGMSRSTSVTSQISNGSHMSYT

Legend:
[1] = target: GST-MEK4 [GST: P08515]; experiment: cell-based or functional assay
[2] = target: GST-MEK6 [GST: P08515]
[3] = target: MEK1
[4] = target: (His)6MEK3
[5] = target: MEK2
[6] = target: Recombinant GST-MEK5 [GST: P08515]
[7] = target: myc-tagged MEK3; experiment: cell-based or functional assay

| Binder | activation of GST-MEK4 toward (His)6p38 (in vitro linked kinase assay) [1] [fold] | activation of GST-MEK4 towards GST-SAPKβ (in vitro linked kinase assay) [1] [fold] | increase of the ability of GST-MEK6 to phosphorylate (His)6p38 (in vitro linked kinase assay) [2] | activity of MEK1 towards the substrate (His)6ERK2 (in vitro linked kinase assay) [3] | enhancement of the ability of MEK3 to phosphorylate p38 (in vitro linked kinase assay) [4] | activity of MEK2 towards the substrate (His)6ERK2 (in vitro linked kinase assay) [5] | phosphorylation of GST-MEK5 (in vitro kinase assay) [6] | MEK3 activity in anti-myc immunoprecipitates from co-transfected 293 cells [7] [fold] | activity toward p38 of myc-tagged MEK3 immunoprecipitated from co-transfected 293 cells [7] [fold] |
| --- | --- | --- | --- | --- | --- | --- | --- | --- | --- |
| B1 | 5 | 150 | by 5-fold | completely unable to increase the activity of MEK1 or MEK2 towards the substrate (His)6ERK2 | approximately 100-fold | completely unable to increase the activity of MEK1 or MEK2 towards the substrate (His)6ERK2 | Recombinant GST-MEK5 was not phosphorylated by (His)6TAO1(1-416) |  |  |
| B2 |  |  |  |  |  |  |  | 3 to 4 | 3 |
